Test: yeast display, Sf9 membrane polyspecificity reagent, FACS + sequencing; frameworks hold sequencing errors
In short: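 In a synthetic yeast display library (Saccharomyces cerevisiae BJ5465), nanobody expression was induced with galactose for 36–48 hours. FACS gates were set low and high (top ~1%) using anti-HA fluorescence for expression and streptavidin fluorescence for binding of the Sf9 membrane reagent. Each polyreactivity label is drawn from the gate of origin.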

| Sequence | polyreactivity (PSR sort gate) |
| --- | --- |
| QVQLVESGGGLDQAGGSLRLSCAASGSTFARNVMGWYRLAPGKERELVAAISWRGGRTYYADSVKGRFTISRDNAKNTVYLQMNSLKPEDTAVYYCAAGRSFRGSYWYEYWGQGTQVTVSS | high polyreactivity |
| QVQLVESGGGLDQAGGSLRLSCAASGSTFESNAMGWYRQAPGKERELVAAISWRVGSTYYADSVKGRFTISRDNAKNTDYLQMHSLKPEDTAVYYCASKGWYSHYGGYDYWGQGTQVTVSS | low polyreactivity |
| QVQLVESGGGLDQAGGSLRLSCAASGSTFGWYAMGWYIQAPGTERELVAAINSSGGTTYYADSVKGLFTISRDNAMNTVYLQMNSLKPEDTAVHYCAARQVYSVGKDTRSVGYWGQGTQVTGSS | low polyreactivity |
| QVQLVESGGGLDQAGGSLRLSCAASGSTFGYYAMAWYRQSPGKERELVAAITSGASTNYADSVKGRFTISRDNAKNTVYLQMNSLKPEDTAVYYCAAGFQTRTPLNEFDYWGQGTQVTLSS | low polyreactivity |
| QVQLVESGGGLDQAGGSLRLSCAASGSTFRYSVMGWSRQAPGKERELVAGISYRGGTTYYADSVKGRFTISRDNAKNTVYLQMNSLKPEDTAVYYCAADSTPYVLSGNYDYWGQGTQVTVSS | low polyreactivity |
| QVQLVESGGGLDQAGGSLRLSCAASGSTFYAYAMGWYRQAPGKERELVAANSSDGTNYADSVKGRFTLSRDNAKNTVYLQMNSLKPEDTAVYYCAKDSVWGAKNLTSYKYYYWGQGTQVTVSS | low polyreactivity |
| QVQLVESGGGLDQAGGSLRLSCAASGYIFYRNAMGCYRQAPGKERELVAAITYTGGRTYYADSVKGRFTISRDNAKNTVYLQMNSLKPEDTAVYYCNADGRVFVVRPYYDYEYWGQGTQVTVSS | low polyreactivity |
| QVQLVESGGGLDQAGGSLRLSCAASVSNFEYYVMGWYRQAPGTERELVAVIRRSSGSTYYADSVKGRFTISRDNAKNTVYLQMNSLKPEDTAVYYCAARRYEPIIWHRMDYCGQGTQVTVSS | low polyreactivity |
| QVQLVESGGGLDQAGGSLRLSCAAYGNTFRGYTMGWYRQAPGKEREFVAAISWSGGRTNYADSVKGRFTISRDNAKNTVYLQMNSLKPEDTAVYYCARDYRARRWGMDYWGQGTQVTVSS | high polyreactivity |
| QVQLVESGGGLDQAGGSLRLSCAAYGSIFYGYAMGWYRTAPGKERELVAAITSGGSTYYADSVKGRFTISRDNAKNTVYLQMNSLKPEDTAVYYCAATFCTWYSWYDYWGQGTQVTVSS | high polyreactivity |
| QVQLVESGGGLDQAGGSLRLSCADSGYILDRNAMGWYRHAPGKETALVAVISWGGTRTYYADSVKGRFTISRDNAKNTVYLQMISLKPEDTAVYYCARYPYYYGYAGRYDYWGQGTQVTVSS | high polyreactivity |
| QVQLVESGGGLDQAGGSLRLSCAPSGRIFYTNAMGWYRQAPGKERELVAAISSGGGRTYYADSVKGRFTISRDNAKNTVYLQMNSLKPEDTAVYYCAASNVGYRSYSRGFDYWGQGTQVTVSS | high polyreactivity |
| QVQLVESGGGLDQAGGSLRLSCASSGIIFWWNTMGGYRQAPGQESEMVAAISTGGSTNYADSVKGRFTISRDNAKNTVYLQMNSLKPEDTAVYYCNADWTDGDWADMDYWGQGTQVTVSS | low polyreactivity |
| QVQLVESGGGLDQAGGSLRLSSAASGFTISWYDMGWYRQAPGKERELVAAITYTGGSTYYADSVKGRFTISRDNAKNTVYFQMNSLKPEDTAVYYCNADEPSSNMDYWGQGTQVTVSS | low polyreactivity |
| QVQLVESGGGLDQAGGSLRLSSAASGSIFSGYAMGWYRQAPGKERELVAAISSSGTRTYYADSVKGRFTISRDNAKNTVYLQMNSLKPEETAVYYCNAATSKVQFSGYGYWGQGTQVTVSS | high polyreactivity |
| QVQLVESGGGLDQAGGSLRLSSAASGSIFVDNAMGWYRQAPGKERELVAAISRRGGSTYYADSVKGRFTISRDNAKNTVYLQMNSLKPEDTAVYYCNKKNIQFYQGASDYWGQGTQVTVSS | high polyreactivity |
| QVQLVESGGGLDQAGGSLRLTCAASGIIFFEYAMGWYRQAPGKERELVAAISWRGGRTYYADSVKGRFTISRDNAKNSVYLQMNSLKPEDTAVYYCAADFRSWPYYPWSKYDYWGQGTQVTVSS | high polyreactivity |
| QVQLVESGGGLDQAGGSLRLTCAASGRIFGAYAMGWYRQAPGKEMELVAVISLSTGSTYYADSVKVRFTISRDNAKNTVYLQMKSLKPDDTAVYYCAVDTRFKWGWDYYYWGLGTQVTVSS | high polyreactivity |
| QVQLVESGGGLDQAGGSLSLSTAASGFTFYVKAMGLYRQAPGKEREWVAAISSSGTRTYYADSVKGRFTISRDNAKNSVYFQMKCLKPEYTAVYFCAARGQAYSGDRMYYWGQGTQVTVSS | high polyreactivity |
| QVQLVESGGGLDQAGGSRRLSGAASGSTFHGYDKGWYIQAPGKERELVAAITSSGDDTYYADSVKGRFTISRDNAKNTVYLKRNSLKPEDTAVYYCDAEYTEGYTHDYWGQGTKVTVSS | low polyreactivity |
| QVQLVESGGGLDQAGRSLRLSFAASGRTFDLYPMGWYRQAPGKERELVAAITNGETYADSVKGRFTISLDDAKNTVYLQMNSLKPEDTAVYYCAKYDPWFWRAEDYWGQGTQVTVSS | low polyreactivity |
| QVQLVESGGGLDQARGSLRLSCAASGFIFGRYAMGWYRQAPGKVRELVAAISRSGGSTHYADSVKGRFTISRDNAKNTVYLQMNSLKPEDTAVYYCNTYLTIWGYFYGYDYWGQGTQVTVSS | high polyreactivity |

| Sequence | polyreactivity (PSR sort gate) |
| --- | --- |
| QVQLVESGGGLDQARGSLRLSCAASGRIFWRYAMGWYRQAPGKERELVASISSGGSTNYADSVKGRFTISRDNAKNTVYLQMNSLKPEDTAVYYCNAQAWHLGVITGRWNRYEYWGQGTQVTVSS | high polyreactivity |
| QVQLVESGGGLDQARGSLRLSCAASGSILRYYTMGWYRQAHGKERELVAAISYRGSSTYYADSVKGRFTISRDNAKNTVYLQMNSLKPEDTAVYYCARGGYYGYDYWGQGTQVTLSS | high polyreactivity |
| QVQLVESGGGLDQARGSLRLSCAASGSTFKRKPLGWYRQATGKERELVAAITQSGGSTYYADSVKGRFTISRDNAKNTVYLLMYSLKPEDTSVYYCAASYLRGRRYEYWGQGTQVTVSS | high polyreactivity |
| QVQLVESGGGLEQAGGSLRLSCAASGITLRVNAMGWYRQAPGKERELVAAITRGTNTYYADSVKGRFTISRDNAKNTVYLQMNSLKPEDTAVYYCAARLPYNAIGYYYWGQGTQVTVSS | low polyreactivity |
| QVQLVESGGGLEQAGGSLRLSCAASGLTFSVYAMGWYRQAPGKERELVAGITSSGGDTYYADSVKGRLTISRDNAKNTVYLQMNSLKPEDTAVYYCNAKYRTFVSKHDYWGQGTQVTVSS | low polyreactivity |
| QVQLVESGGGLFHAGGSLRLSCAASGIIFGGYTIGWYRQAPGKERELVAAISWSGVGTYYADSVKGRFTISRDNAKNTVYLQMNSLKPDDTAVYYCAAWAYYSDDDEYWGQGTQVTVSS | high polyreactivity |
| QVQLVESGGGLFHAGGSLRLSCSASGLTFDINAMGWYRQEPGKERELVAAISRSGGRTYYADSVKGRFTISRDNAKNTVFLQMNSLKPEDTAVYYCADRFIYGYDYWGQGTQVTVSS | high polyreactivity |
| QVQLVESGGGLFQAGGRLRLSCAASGRIFWLYAMGWYRQAPGKERELVAAITGIGGSTYYADSVKGRFTISRDNAKNTVYLQMNSLKPEDTAVYYCAARSPATYPSMGYWGQGTQGTVSS | low polyreactivity |
| QVQLVESGGGLFQAGGRLRLSCAATGSIFSVYTMGWYRQAPGKERELVATISFSVGRTYYADSVKGRFTISRDNEKNSVYLQMNSLKPEDTAVYYCNARSCGGYYHWGQGTQVTVSS | high polyreactivity |
| QVQLVESGGGLFQAGGSHRLSCAATGINFSEYAMGWYRQAPGKERELVAAISKSSGSTRYADSVKGRFTISRDNAKNTVFLQMNSLNPEDTAVYYCAARQYGPRYTYYYWGQGTQVTVSS | high polyreactivity |
| QVQLVESGGGLFQAGGSLRLSCAASGFIFPINAMGWYRQAPGKERELVAAITSGGRTNYADSVKGRFTISRDNAKNTVYLQMNSLKPEDTAVYYCNAVVFVLNVEYYPWLLNNYWGQGTQVTVSS | low polyreactivity |
| QVQLVESGGGLFQAGGSLRLSCAASGFIFSHYAMGWYRQAPGNDREFVATISKRGGSTTYADSVKGRFTISRDNAKNTVYFQMNSLKPVDTAVYDFAADYYPASAGFDYWGQGTQVTVSS | high polyreactivity |
| QVQLVESGGGLFQAGGSLRLSCAASGFIFSYNAMGWYRQAPGKERELVAAISSSGGTTYYADSVKGRFTISRDNAKNTVYLQMNSLKPEDTAVYYCNARWHAEYDYWGQGTQVTVSA | low polyreactivity |
| QVQLVESGGGLFQAGGSLRLSCAASGFIFTRYAMGWYRQAPGKERELVAAISWSGGSTYYADSVKGRFTISRDNAKNTVYLQMNSLKPEDTAVYYCAADGSDSYDYWGQGTQVTVSS | low polyreactivity |
| QVQLVESGGGLFQAGGSLRLSCAASGFTFYGYAMAWYRHAPGKERELVAAITFRGDRTYYADSVKGRFTISRDNAKNTVYLQINSLKPEDTAVYYCAAVRPSGWYSYLSLYIVRRGYWGQGTQVTVSS | low polyreactivity |
| QVQLVESGGGLFQAGGSLRLSCAASGFTIYHNAMRWYRQEPGKERELVAAISSSGDSTYYADSVKGRFTISRDNAKNTVYLQMNSLKPEDTAVYYCNDYFYYLSLYYYYWFNYDYWGQGTQVTVSS | low polyreactivity |
| QVQLVESGGGLFQAGGSLRLSCAASGIIFRGNAMGWYRQATVKERELVAAISKSGGRTYYADSVKGRFTISRDNAKNTVYLEMICLKPEDSAVYYCAARFYAVGGYDYWGQGTQVTVSS | high polyreactivity |
| QVQLVESGGGLFQAGGSLRLSCAASGIIFYVNAMAWSRQAPGKERERVAVISRRGGSTNDADSVKGRFTISRDNAKNTVYLQMKSLKPEDTAVYYCDAGYRTAYRGSSYYYWGKGTQVTVSS | high polyreactivity |
| QVQLVESGGGLFQAGGSLRLSCAASGITFYYYTMGWYRQAPGKERELVAAISTRGGRTYYADSVKGRFTISRDNAKNTVYLQMNSLKPEDTAVYYCATYQSGVYASKRRLDYWGQGTQVTVSS | high polyreactivity |
| QVQLVESGGGLFQAGGSLRLSCAASGLTFVDNSMGWYRQAPGKEREFVAAITKRGGRTYYADSVKGRFTISRDNAKNTVYLQMTSLKPEDTAVYYCARESGNDSSRRLDYWGQGTQVTVSS | low polyreactivity |
| QVQLVESGGGLFQAGGSLRLSCAASGNTFLRNAMGWYRQPPWKERELVAAISRSGGRTYYADSVKGSFTISRDNAKNTVYLQMISLKPDDTAVYYCAVVTQFGDGYYWGQGTQVTVSS | high polyreactivity |
